According to PMC11176775 (2024):

Biological target: Apurinic/apyrimidinic-endonuclease 1 (UniProt P27695 1-318)
Experiment: SPR

Chain of Apurinic/apyrimidinic-endonuclease 1 (P27695 whole entry): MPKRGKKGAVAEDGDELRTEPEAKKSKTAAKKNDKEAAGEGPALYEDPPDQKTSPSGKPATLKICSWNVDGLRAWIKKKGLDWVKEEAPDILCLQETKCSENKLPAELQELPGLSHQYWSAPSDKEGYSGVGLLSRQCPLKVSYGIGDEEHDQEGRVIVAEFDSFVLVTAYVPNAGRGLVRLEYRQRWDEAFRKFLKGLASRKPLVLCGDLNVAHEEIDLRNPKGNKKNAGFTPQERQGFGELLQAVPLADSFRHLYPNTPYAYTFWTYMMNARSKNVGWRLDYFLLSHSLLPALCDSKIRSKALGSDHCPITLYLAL

B1: LIGIIIα▵ZnF (170–922 amino acids) (domain or fragment)
chain: RHKDCLLREFRKLCAMVADNPSYNTKTQIIQDFLRKGSAGDGFHGDVYLTVKLLLPGVIKTVYNLNDKQIVKLFSRIFNCNPDDMARDLEQGDVSETIRVFFEQSKSFPPAAKSLLTIQEVDEFLLRLSKLTKEDEQQQALQDIASRCTANDLKCIIRLIKHDLKMNSGAKHVLDALDPNAYEAFKASRNLQDVVERVLHNAQEVEKEPGQRRALSVQASLMTPVQPMLAEACKSVEYAMKKCPNGMFSEIKYDGERVQVHKNGDHFSYFSRSLKPVLPHKVAHFKDYIPQAFPGGHSMILDSEVLLIDNKTGKPLPFGTLGVHKKAAFQDANVCLFVFDCIYFNDVSLMDRPLCERRKFLHDNMVEIPNRIMFSEMKRVTKALDLADMITRVIQEGLEGLVLKDVKGTYEPGKRHWLKVKKDYLNEGAMADTADLVVLGAFYGQGSKGGMMSIFLMGCYDPGSQKWCTVTKCAGGHDDATLARLQNELDMVKISKDPSKIPSWLKVNKIYYPDFIVPDPKKAAVWEITGAEFSKSEAHTADGISIRFPRCTRIRDDKDWKSATNLPQLKELYQLSKEKADFTVVAGDEGSSTTGGSSEENKGPSGSAVSRKAPSKPSASTKKAEGKLSNSNSKDGNMQTAKPSAMKVGEKLATKSSPVKVGEKRKAADETLCQTKVLLDIFTGVRLYLPPSTPDFSRLRRYFVAFDGDLVQEFDMTSATHVLGSRDKNPAAQQVSPEWIWACIRKRRLVAPC
Kd: 4.9 nM

B2: LIGIIIα▵BRCT (1–755 amino acids) (domain or fragment)
chain: MAEQRFCVDYAKRGTAGCKKCKEKIVKGVCRIGKVVPNPFSESGGDMKEWYHIKCMFEKLERARATTKKIEDLTELEGWEELEDNEKEQITQHIADLSSKAAGTPKKKAVVQAKLTTTGQVTSPVKGASFVTSTNPRKFSGFSAKPNNSGEAPSSPTPKRSLSSSKCDPRHKDCLLREFRKLCAMVADNPSYNTKTQIIQDFLRKGSAGDGFHGDVYLTVKLLLPGVIKTVYNLNDKQIVKLFSRIFNCNPDDMARDLEQGDVSETIRVFFEQSKSFPPAAKSLLTIQEVDEFLLRLSKLTKEDEQQQALQDIASRCTANDLKCIIRLIKHDLKMNSGAKHVLDALDPNAYEAFKASRNLQDVVERVLHNAQEVEKEPGQRRALSVQASLMTPVQPMLAEACKSVEYAMKKCPNGMFSEIKYDGERVQVHKNGDHFSYFSRSLKPVLPHKVAHFKDYIPQAFPGGHSMILDSEVLLIDNKTGKPLPFGTLGVHKKAAFQDANVCLFVFDCIYFNDVSLMDRPLCERRKFLHDNMVEIPNRIMFSEMKRVTKALDLADMITRVIQEGLEGLVLKDVKGTYEPGKRHWLKVKKDYLNEGAMADTADLVVLGAFYGQGSKGGMMSIFLMGCYDPGSQKWCTVTKCAGGHDDATLARLQNELDMVKISKDPSKIPSWLKVNKIYYPDFIVPDPKKAAVWEITGAEFSKSEAHTADGISIRFPRCTRIRDDKDWKSATNLPQLKELYQLSKEKADFTVVA
Kd: 1050 nM
